# Literature values as cited in patent US5474978A, “Insulin analog formulations” (Eli Lilly and Company, priority 1994, dated 1995).
# Settings: compared with Zn-insulin
row,Substance,Zn-induced association
1,Ala^B28 Pro^B29 -hI,little or no Zn-induced association
2,Ala^B28 insulin,"demonstrate Zn-induced association, but less than Zn-insulin"
3,Asp^B28 Pro^B29 -hI,little or no Zn-induced association
4,Lys^B28 insulin,"demonstrate Zn-induced association, but less than Zn-insulin"
5,Asp^B28 insulin,"demonstrate Zn-induced association, but less than Zn-insulin"
6,Pro^B29 insulin,"demonstrate Zn-induced association, but less than Zn-insulin"
